Data as given in publication PMC3597794.
“And” between values parts separate entries of the source, which are not always exact repeats. Equal values may be shown once.

Biological target: HsiB1C1 complex (P. aeruginosa PAO1)
Experiment: negative stain electron microscopy

HsiB1C1 complex
stoichiometry N: 12 and 13
